Reference: patent US5145783A, “Glyphosate-tolerant 5-endolpyruvyl-3-phosphoshikimate synthase” (Monsanto Company, priority 1990, dated 1992)

Molecular target: T1, wild-type EPSP synthase of tomato (Solanum lycopersicum, UniProt P10748)
T1 construct: ATG translational initiation codon at the site predicted to be the start of the mature enzyme for in vitro expression in E. Coli; initiator methionine (ATG in an engineered NcoI site) (N); made in house; host or cells: E. coli SR481 (aroA mutant) harboring pMON9719, desalted cell extract
Test: EPSP synthase activity assay, extracts of E. coli SR481 harboring pMON9719
Format: biochemical
Settings: cells containing pMON9719, no glyphosate
Experimental: E. coli SR481 cells harboring pMON9719 or pMON9729 were grown under conditions which induce the expression of the RecA promoter. The cells were lysed and the extracts were assayed for EPSP synthase activity.
Specifically, the bacterial cell paste was washed twice with 0.9% saline, suspended in buffer (100 mM Tris-HCl, 5 mM dithiothreitol, 1 mM EDTA, 10% glycerol and 1 mM benzamidine HCl) passed twice through the French Pressure Cell at 1000 psi. The cell abstract was separated from the cells by centrifuging at 15,000×gravity for 10 mins. at 5° C. It was desalted using Sephadex G-50 (Pharmacia, Piscataway, N.J.). The desalted extract was assayed for EPSP synthase activity as follows:
To an assay mix (40 μl) containing shikimate-3-phosphate (2 mM), ^14 C-phosphoenolpyruvate (1 mM, 1.2 mCi/mmol), ammonium molybdate (0.1 mM), potassium fluoride (5 mM), in 50 mM HEPES-KOH, pH 7, was added 10 μl of the extract and incubated at 25° C. for 2 mins. […] The radioactivity of the eluent was monitored using a Radiometric Flo-One Beta Instrument. […] The EPSP synthase activity was determined by measurement of the conversion of ^14 C-PEP to ^14 […], both of which are resolved under the above conditions of chromatography. The protein content of the extract was determined by the method of Bradford (Biorad Labs, Calif.). […]

B1: pMON9719: wild-type EPSP synthase of tomato expressed in E. coli SR481 under the recA promoter, cell extract (protein, UniProt P10748 77-520, looked up)
3-phosphoshikimate …: KPHEIVLXPIKDISGTVKLPGSKSLSNRILLLAALSEGRTVVDNLLSSDDIHYMLGALKTLGLHVEDDNENQRAIVEGCGGQFPVGKKSEEEIQLFLGNAGTAMRPLTAAVTVAGGHSRYVLDGVPRMRERPIGDLVDGLKQLGAEVDCSLGTNCPPVRIVSKGGLPGGKVKLSGSISSQYLTALLMAAPLALGDVEIEIIDKLISVPYVEMTLKLMERFGVFVEHSSGWDRFLVKGGQKYKSPGKAFVEGDASSASYFLAGAAVTGGTVTVEGCGTSSLQGDVKFAEVLEKMGAEVTWTENSVTVKGPPRNSSGMKHLRAIDVNMNKMPDVAMTLAVVALFADGPTTIRDVASWRVKETERMIAICTELRKLGATVVEGSDYCIITPPEKLNVTEIDTYDDHRMAMAFSLAACADVPVTIKNPGCTRKTFPDYFEVLQKYSKH
modifications: X: residue not identified in the source
notes: wild-type EPSP synthase of tomato expressed in E. coli SR481 under the recA promoter, cell extract
Q: For B1, which “EPSP synthase activity (specific activity of the extract)” value is on record?
A: about 1600 nanomoles of EPSP synthase formed/minute/mg protein
